{
  "source": "patent US6602992B1",
  "about": "“Mammalian prestin polynucleotides” (Northwestern University, priority 2000, dated 2003)",
  "molecules": {"B1": {"name": "N-tagged prestin: full-length prestin with an Xpress epitope located upstream and in-frame (protein, UniProt P58743 1-744, looked up)", "chain": "MDHAEENEILAATQRYYVERPIFSHPVLQERLHTKDKVPDSIADKLKQAFTCTPKKIRNIIYMFLPITKWLPAYKFKEYVLGDLVSGISTGVLQLPQGLAFAMLAAVPPIFGLYSSFYPVIMYCFLGTSRHISIGPFAVISLMIGGVAVRLVPDDIVIPGGVNATNGTEARDALRVKVAMSVTLLSGIIQFCLGVCRFGFVAIYLTEPLVRGFTTAAAVHVFTSMLKYLFGVKTKRYSGIFSVVYSTVAVLQNVKNLNVCSLGVGLMVFGLLLGGKEFNERFKEKLPAPIPLEFFAVVMGTGISAGFNLKESYNVDVVGTLPLGLLPPANPDTSLFHLVYVDAIAIAIVGFSVTISMAKTLANKHGYQVDGNQELIALGLCNSIGSLFQTFSISCSLSRSLVQEGTGGKTQLAGCLASLMILLVILATGFLFESLPQAVLSAIVIVNLKGMFMQFSDLPFFWRTSKIELTIWLTTFVSSLFLGLDYGLITAVIIALLTVIYRTQSPSYKVLGKLPETDVYIDIDAYEEVKEIPGIKIFQINAPIYYANSDLYSNALKRKTGVNPAVIMGARRKAMRKYAKEVGNANMANATVVKADAEVDGEDATKPEEEDGEVKYPPIVIKSTFPEEMQRFMPPGDNVHTVILDFTQVNFIDSVGVKTLAGIVKEYGDVGIYVYLAGCSAQVVNDLTRNRFFENPALWELLFHSIHDAVLGSQLREALAEQEASAPPSQEDLEPNATPATPEA", "modifications": "full-length N-terminal Xpress tag"}, "B2": {"name": "C-tagged prestin: full-length prestin tagged at the C-terminus with a V5 epitope (protein, UniProt P58743 1-744, looked up)", "chain": "B1 chain", "modifications": "full-length C-terminal V5 tag"}, "B3": {"name": "prestin: gerbil outer hair cell motor protein, 744 amino acids, 81.4 kiloDaltons, SEQ ID NO:1, expressed from Pres cDNA (protein, listed as Meriones unguiculatus)", "chain": "MDHAEENEIPVATQKYHVERPIFSHPVLQERLHVKDKVSESIGDKLKQAFTCTPKKIRNIIYMFLPITKWLPAYKFKEYVLGDLVSGISTGVLQLPQGLAFAMLAAVPPVFGLYSSFYPVIMYCFFGTSRHISIGPFAVISLMIGGVAVRLVPDDIVIPGGVNATNGTEARDALRVKVAMSVTLLSGIIQFCLGVCRFGFVAIYLTEPLVRGFTTAAAVHVFTSMLKYLFGVKTKRYSGIFSVVYSTVAVLQNVKNLNVCSLGVGLMVFGLLLGGKEFNERFKEKLPAPIPLEFFAVVMGTGISAGFNLHESYSVDVVGTLPLGLLPPANPDTSLFHLVYVDAIAIAIVGFSVTISMAKTLANKHGYQVDGNQELIALGICNSIGSLFQTFSISCSLSRSLVQEGTGGKTQLAGCLASLMILLVILATGFLFESLPQAVLSAIVIVNLKGMFMQFSDLPFFWRTSKIELTIWLTTFVSSLFLGLDYGLITAVIIALLTVIYRTQSPSYKVLGQLPDTDVYIDIDAYEEVKEIPGIKIFQINAPIYYANSDLYSNALKRKTGVNPALIMGARRKAMRKYAKEVGNANIANAAVVKVDGEVDGENATKPEEEDDEVKYPPIVIKTTFPEELQRFMPQTENVHTIILDFTQVNFIDSVGVKTLAVMVKEYGDVGIYVYLAGCSPQVVNDLTRNRFFENPALKELLFHSIHDAVLGSHVREAMAEQEASAPPPQDDMEPNATPTTPEA"}, "B4": {"name": "human pendrin: chloride-iodide transport protein homologous to prestin, expressed from cDNA as specificity control (protein, UniProt O43511 1-780, looked up)", "Pendrin": "MAAPGGRSEPPQLPEYSCSYMVSRPVYSELAFQQQHERRLQERKTLRESLAKCCSCSRKRAFGVLKTLVPILEWLPKYRVKEWLLSDVISGVSTGLVATLQGMAYALLAAVPVGYGLYSAFFPILTYFIFGTSRHISVGPFPVVSLMVGSVVLSMAPDEHFLVSSSNGTVLNTTMIDTAARDTARVLIASALTLLVGIIQLIFGGLQIGFIVRYLADPLVGGFTTAAAFQVLVSQLKIVLNVSTKNYNGVLSIIYTLVEIFQNIGDTNLADFTAGLLTIVVCMAVKELNDRFRHKIPVPIPIEVIVTIIATAISYGANLEKNYNAGIVKSIPRGFLPPELPPVSLFSEMLAASFSIAVVAYAIAVSVGKVYATKYDYTIDGNQEFIAFGISNIFSGFFSCFVATTALSRTAVQESTGGKTQVAGIISAAIVMIAILALGKLLEPLQKSVLAAVVIANLKGMFMQLCDIPRLWRQNKIDAVIWVFTCIVSIILGLDLGLLAGLIFGLLTVVLRVQFPSWNGLGSIPSTDIYKSTKNYKNIEEPQGVKILRFSSPIFYGNVDGFKKCIKSTVGFDAIRVYNKRLKALRKIQKLIKSGQLRATKNGIISDAVSTNNAFEPDEDIEDLEELDIPTKEIEIQVDWNSELPVKVNVPKVPIHSLVLDCGAISFLDVVGVRSLRVIVKEFQRIDVNVYFASLQDYVIEKLEQCGFFDDNIRKDTFFLTVHDAILYLQNQVKSQEGQGSILETITLIQDCKDTLELIETELTEEELDVQDEAMRTLAS"}},
  "key": {"prestin [1]": {"molecular_target": "T1, prestin (Meriones unguiculatus, UniProt Q9JKQ2)", "T1 sequence (Q9JKQ2 1-744)": "B3 chain", "method": "(§1) TSA201 cells, clones of human embryonic kidney 293 cells that express the simian virus 40 (SV40) large T-antigen in a stable manner, were cultured in DMEM with 5% fetal calf serum, 100 units of penicillin per millilter, and 100 micrograms of streptomycin per milliliters. Cells were plated for 24 hours before calcium phosphate transfection. The transfection reaction mixture contained:\n(§2) a) control plasmid, pcDNA3.1; b) 2 micrograms of Pres cDNA plasmid; c) 2 micrograms of Pres cDNA plasmid plus 0.2 micrograms of green fluorescent protein (GFP) plasmid as transfection marker; or d) 2 micrograms of pendrin cDNA plasmid plus 0.2 micrograms GFP plasmid.\n(§3) After 24 hours the transfected cells were used for electrophysiological and physical measurements.\nWhole-cell voltage-clamp recordings were made with an Axopatch™ 200B amplifier (Axon Instruments, Foster City, Calif.) Recording pipettes had open tip resistances of 2-3 megaohms and were filled with internal solution containing 140 millimolar CsCl, 2 millimolar MgCl2, 10 millimolar EGTA, and 10 millimolar HEPES at pH 7.2. The external solution contained: 120 millimolar NaCl, 20 millimolar TEA-Cl, 2 millimolar CoCl2, 2 millimolar MgCl2, 10 millimolar HEPES, and 5 millimolar glucose at pH 7.2. Osmolarity was adjusted to 300 milliosmolar per liter with glucose. Capacitive currents were filtered at 5 kilohertz and digitized at 50 kilohertz using pClamp 7.0 software (Axon Instruments).\nVoltage-dependent capacitance was measured using two methods. First, a standard P/4 linear subtraction procedure was employed to detect the presence of nonlinear charge movement. After nonlinear transient current was detected, a stair-step voltage protocol was used to obtain the parameters of charge movement. For each voltage step, the measured membrane capacitance (Cm) was plotted as a function of membfane voltage (Vm) and fitted with the derivative of a Boltzmann function: [formula] […]"}, "prestin [2]": {"molecular_target": "T1, prestin", "settings": "10 millimolar in external bathing solution, FIG. 6C", "method": "as §1, §2, §3\nTSA201 cells were drawn into a microchamber with gentle suction (FIG. 6A). The microchamber was mounted on a three-dimensional micromanipulator attached to the stage of a Zeiss inverted microscope. […] The command voltage, delivered between the electrolyte solutions (L15, Gibco BRL) surrounding and filling the microchamber, produces different voltage drops on the included and excluded cell membrane segments, determined by the electrical voltage-divider effect of these membranes. During motility measurements, the location of the cell within the slit was monitored via a video camera placed behind the slit. […]"}, "TSA201 cells [3]": {"system": "TSA201 cells", "experiment": "Nonlinear capacitance / charge movement conveyed to transiently transfected TSA201 cells", "format": "cell-based, human", "parameters": "average charge density: unit not given here", "settings": "for nonlinear capacitance: co-transfected with GFP", "description": "The transfection reaction mixture contained:\nVoltage-dependent capacitance was measured using two methods.\nTo test the sensor-motor function of prestin, voltage-dependent charge movement was measured in TSA201 cells after transient transfection of unmodified, native Pres cDNA. A second plasmid (pEGFP-N2) containing GFP cDNA was used as an independent marker for successful transfection of the cells. Transfection efficiency was 30-40% as judged from the fluorescence of GFP in transfected cells. […] In experiments conducted on cells co-transfected with prestin and GFP cDNA, transient capacitive currents were obtained from 91.8% of the GFP positive cells. […] The capacitive currents were directed towards the outside as the membrane potential was depolarized and toward the inside as it was hyperpolarized. Charges transferred at command onset and offset were approximately equal. The decay of transient currents was rapid (100-200 microseconds) and could be well-fitted with a single exponential. The voltage protocol used to estimate membrane capacitance and charge transfer across the membrane was an ascending stair-step voltage waveform (FIG. 5B). The membrane capacitance was fitted to the derivative of a first-order Boltzmann equation (FIG. 5C). In a group of seven cells, these curve-fits yielded values of Qmax=1.76±0.20 pC, V1/2=−57.30 ±2.98 mV, 1/a˜=kT/ze=28.00±2.13 mV, and Clin=20.50±2.65 pF, respectively (mean±SEM). The valence can be calculated from a, z=0.91. The average charge density, a possible measure of transiently transfected motor protein density in TSA201 cells, was […]. The numerical values that characterize the charge movement (V1/2, z) are quite similar to those obtained for OHCs. The maximum charge and charge density are less in the transfected cells, even though the linear capacitance is about the same as that of an average OHC. […]"}, "TSA201 cells [4]": {"system": "TSA201 cells", "experiment": "Electromotility conveyed to transfected TSA201 cells (microchamber)", "format": "cell-based, human", "settings": "cells drawn into microchamber, 200 Hertz sinusoid", "source_text": "A change of photocurrent signified cell extension or contraction."}, "[5]": {"settings": "Boltzmann fit, seven cells, mean±SEM"}},
  "data": [
    {"molecule": "O=C([O-])c1ccccc1O.[Na+]", "note": "[Sodium salicylate, sodium salicylate]", "values": [
      {"measurement": "effect on charge movement", "setting": "prestin [1]", "value": "reversibly blocks charge movement"},
      {"measurement": "transient currents after recovery, % of control", "setting": "prestin [1]; 3 cells, after 2-5 minutes of washing in normal extracellular solution without sodium salicylate", "value": "88.4±8.8 % of control"},
      {"measurement": "transient currents, % of control", "setting": "prestin [1]; 10 millimolar sodium salicylate applied locally, mean±SEM", "value": "15.5±2.9 % of control"},
      {"measurement": "effect on electromotile response", "setting": "prestin [2]", "value": "reversible decrease in the electromotile response"}
    ]},
    {"molecule": "B1", "values": [
      {"measurement": "nonlinear capacitance", "setting": "TSA201 cells [3]", "value": "typical nonlinear capacitance curve is observed"}
    ]},
    {"molecule": "B2", "values": [
      {"measurement": "nonlinear capacitance", "setting": "TSA201 cells [3]", "value": "typical nonlinear capacitance curve is observed"}
    ]},
    {"molecule": "B3", "values": [
      {"measurement": "cells tested showing electromotility", "setting": "TSA201 cells [4]", "value": "about 22%"},
      {"measurement": "1/a = kT/ze, slope factor", "setting": "TSA201 cells [3]; [5]", "value": "28.00±2.13", "unit": "mV"},
      {"measurement": "Qmax, maximum charge transfer", "setting": "TSA201 cells [3]; [5]", "value": "1.76±0.20", "unit": "pC"},
      {"measurement": "V1/2, voltage at which the maximum charge is equally distributed", "setting": "TSA201 cells [3]; [5]", "value": "−57.30 ±2.98", "unit": "mV"},
      {"measurement": "valence z", "setting": "TSA201 cells [3]; calculated from a", "value": 0.91},
      {"measurement": "cells displaying transient capacitive currents", "setting": "TSA201 cells [3]; cells transfected with Pres alone", "value": 36.8, "unit": "%"},
      {"measurement": "GFP positive cells displaying transient capacitive currents", "setting": "TSA201 cells [3]; co-transfected with prestin and GFP cDNA", "value": 91.8, "unit": "%"},
      {"measurement": "decay of transient currents", "setting": "TSA201 cells [3]; single exponential", "value": "100-200 microseconds"},
      {"measurement": "average charge density", "setting": "TSA201 cells [3]; transiently transfected TSA201 cells", "value": 5360}
    ]},
    {"molecule": "B4", "values": [
      {"measurement": "nonlinear capacitance", "setting": "TSA201 cells [3]", "value": "None of the GFP-positive cells demonstrated nonlinear capacitance"}
    ]}
  ]
}
